Results reported in patent US20240043495A1, “DSG2 COMPOSITIONS AND METHODS FOR THE TREATMENT OF COVID-19” (priority 2020, published 2024).

Columns and labels:
[1] = biological target: Anti-DSG2 antibody; assay: anti-DSG2 antibody MSD assay; fraction C; inhibition of the signal of anti-DSG2 antibody at 200 ng/mL (control)
[2] = biological target: Anti-DSG2 antibody; assay: anti-DSG2 antibody MSD assay; fraction C; inhibition of the signal of anti-DSG2 antibody at 1000 ng/mL (control)
[3] = Dynamic light scattering (DLS) of DSG2 fusion polypeptides; format: physicochemical; conditions: for PDI: polymer distribution index
Text: 6 candidates were compared to the reference sample.

[4] = Melting temperature Tm of DSG2 fusion polypeptides; format: physicochemical
Text: As the temperature increased, the aggregates began to move, unfold and spread apart.

[5] = test system: anti-DSG2 antibody; assay: Anti-DSG2 antibody Meso Scale Discovery (MSD) blocking assay, anti-DSG2 antibody controls; format: binding; conditions: for ability to bind to and block anti-DSG2 antibody: MSD assay; for % inhibition: fraction C
Experimental: (§1) The DSG2 fusion polypeptides were tested for the ability to block anti-DSG2 antibody by an anti-DSG2 antibody Meso Scale Discovery (MSD) assay. […] The DSG2 fusion polypeptides were subjected to size exclusion chromatography and different elution fractions were examined. […] As shown in Table 9 and FIG. 4B, FIG. 4C, and FIG. 4D, enriching for fraction C improved the ability of the DSG2 fusion polypeptides to block ARVC patient serum.

[6] = biological target: Anti-DSG2 antibody; assay: electrochemical immunoassay; blocking of anti-DSG2 antibodies (500 ng/mL) binding to DSG2 extracellular domain; fusion polypeptide 5 mg/mL as printed
[7] = test system: ARVC serum (serum obtained from ARVC patients); assay: Anti-DSG2 antibody Meso Scale Discovery (MSD) blocking assay, ARVC serum; format: binding, human; conditions: for % inhibition: fraction C; for effect of enriching for fraction C on ability to block ARVC patient serum: size exclusion fraction C vs whole preparation, FIG. 4B-4D
Experimental: as §1

[8] = sample: Anti-DSG2 antibody (200 ng/mL) control
[9] = sample: Anti-DSG2 antibody (1000 ng/mL) control

## DSG2-GGGGS-(IgG1)Fc (Fc fusion)
[1]
  % inhibition: 61.2%
[2]
  % inhibition: 85.5%

## DSG2FP#7: DSG2 extracellular domain (50-609 of SEQ ID NO: 1); GGGGS peptide linker; IgG4 Fc (S228P, L235E, P329G) (SEQ ID NO: 32)
[3]
  Peak 1 mass %: ~97%
  Peak 1 mode diameter: 86.23 nm
  PDI: 0.30
[4]
  Tm1: 53.4 °C
  Tm2: 60.0 °C
[5]
  ability to bind to and block anti-DSG2 antibody: able to bind to and block anti-DSG2 antibodies

## DSG2-(IgG1)Fc (Fc fusion)
[1]
  % inhibition: 54.5%
[2]
  % inhibition: 81.6%

## DSG2FP#6: DSG2 extracellular domain (50-609 of SEQ ID NO: 1); amino acids 99-327 of IgG4 (S228P, L235E, P329G) (SEQ ID NO: 32)
[3]
  Peak 1 mass %: ~99%
  Peak 1 mode diameter: 98.03 nm
  PDI: 0.32
[4]
  Tm1: 51.1 °C
  Tm2: 60.0 °C
[5]
  ability to bind to and block anti-DSG2 antibody: able to bind to and block anti-DSG2 antibodies

## DSG2-GGGGS-(IgG4)Fc (Fc fusion)
[6]
  % inhibition: > 80%

## DSG2-(IgG4)Fc (Fc fusion)
[6]
  % inhibition: > 80%

## DSG2-EAAAK-(IgG1)Fc (Fc fusion)
[1]
  % inhibition: 61.2%
[2]
  % inhibition: 85.5%

## DSG2FP#5: amino acids 104-330 of IgG1 (L234A, L235A, P329G; SEQ ID NO: 31); DSG2 extracellular domain (50-609 of SEQ ID NO: 1)
[3]
  Peak 1 mass %: ~99%
  Peak 1 mode diameter: 76.72 nm
  PDI: 0.31
[4]
  Tm1: 65.0 °C
[5]
  ability to bind to and block anti-DSG2 antibody: able to bind to and block anti-DSG2 antibodies

B1: DSG2FP#2: DSG2 extracellular domain (amino acids 50-609 of SEQ ID NO: 1); amino acids 104-330 of IgG1 (L234A, L235A, P329G) (SEQ ID NO: 31) (protein)
chain: AWITAPVALREGEDLSKKNPIAKIHSDLAEERGLKITYKYTGKGITEPPFGIFVFNKDTGELNVTSILDREETPFFLLTGYALDARGNNVEKPLELRIKVLDINDNEPVFTQDVFVGSVEELSAAHTLVMKINATDADEPNTLNSKISYRIVSLEPAYPPVFYLNKDTGEIYTTSVTLDREEHSSYTLTVEARDGNGEVTDKPVKQAQVQIRILDVNDNIPVVENKVLEGMVEENQVNVEVTRIKVFDADEIGSDNWLANFTFASGNEGGYFHIETDAQTNEGIVTLIKEVDYEEMKNLDFSVIVANKAAFHKSIRSKYKPTPIPIKVKVKNVKEGIHFKSSVISIYVSESMDRSSKGQIIGNFQAFDEDTGLPAHARYVKLEDRDNWISVDSVTSEIKLAKLPDFESRYVQNGTYTVKIVAISEDYPRKTITGTVLINVEDINDNCPTLIEPVQTICHDAEYVNVTAEDLDGHPNSGPFSFSVIDKPPGMAEKWKIARQESTSVLLQQSEKKLGRSEIQFLISDNQGFSCPEKQVLTLTVCECLHGSGCREAQHDSYVGDKTHTCPPCPAPEAAGGPSVFLFPPKPKDTLMISRTPEVTCVVVDVSHEDPEVKFNWYVDGVEVHNAKTKPREEQYNSTYRVVSVLTVLHQDWLNGKEYKCKVSNKALGAPIEKTISKAKGQPREPQVYTLPPSRDELTKNQVSLTCLVKGFYPSDIAVEWESNGQPENNYKTTPPVLDSDGSFFLYSKLTVDKSRWQQGNVFSCSVMHEALHNHYTQKSLSLSPGK
[3]
  Peak 1 mass %: ~96%
  Peak 1 mode diameter: 40.04 nm
  PDI: 0.32
[4]
  Tm1: 52.0 °C
  Tm2: 61.9 °C
  Tm3: 81.9 °C
[5]
  ability to bind to and block anti-DSG2 antibody: able to bind to and block anti-DSG2 antibodies
[5]; [8]
  % inhibition: 54.5%
[5]; [9]
  % inhibition: 81.6%
[5]; sample: no antibody control
  % inhibition: −19.1%
[7]; sample: ARVC serum 1
  % inhibition: 3.0%
[7]; sample: ARVC serum 2
  % inhibition: 33.5%
[7]; sample: ARVC serum 3
  % inhibition: 26.0%
[7]; sample: ARVC serum 4
  % inhibition: 51.1%
[7]; sample: ARVC serum 5
  % inhibition: 41.8%
[7]
  effect of enriching for fraction C on ability to block ARVC patient serum: more pronounced

B2: DSG2FP#3: DSG2 extracellular domain (50-609 of SEQ ID NO: 1); linker GGGGS; amino acids 104-330 of IgG1 (L234A, L235A, P329G) (protein)
chain: AWITAPVALREGEDLSKKNPIAKIHSDLAEERGLKITYKYTGKGITEPPFGIFVFNKDTGELNVTSILDREETPFFLLTGYALDARGNNVEKPLELRIKVLDINDNEPVFTQDVFVGSVEELSAAHTLVMKINATDADEPNTLNSKISYRIVSLEPAYPPVFYLNKDTGEIYTTSVTLDREEHSSYTLTVEARDGNGEVTDKPVKQAQVQIRILDVNDNIPVVENKVLEGMVEENQVNVEVTRIKVFDADEIGSDNWLANFTFASGNEGGYFHIETDAQTNEGIVTLIKEVDYEEMKNLDFSVIVANKAAFHKSIRSKYKPTPIPIKVKVKNVKEGIHFKSSVISIYVSESMDRSSKGQIIGNFQAFDEDTGLPAHARYVKLEDRDNWISVDSVTSEIKLAKLPDFESRYVQNGTYTVKIVAISEDYPRKTITGTVLINVEDINDNCPTLIEPVQTICHDAEYVNVTAEDLDGHPNSGPFSFSVIDKPPGMAEKWKIARQESTSVLLQQSEKKLGRSEIQFLISDNQGFSCPEKQVLTLTVCECLHGSGCREAQHDSYVGGGGGGSDKTHTCPPCPAPEAAGGPSVFLFPPKPKDTLMISRTPEVTCVVVDVSHEDPEVKFNWYVDGVEVHNAKTKPREEQYNSTYRVVSVLTVLHQDWLNGKEYKCKVSNKALGAPIEKTISKAKGQPREPQVYTLPPSRDELTKNQVSLTCLVKGFYPSDIAVEWESNGQPENNYKTTPPVLDSDGSFFLYSKLTVDKSRWQQGNVFSCSVMHEALHNHYTQKSLSLSPGK
[3]
  Peak 1 mass %: ~91%
  Peak 1 mode diameter: 43.23 nm
  PDI: 0.30
[4]
  Tm1: 51.3 °C
  Tm2: 62.8 °C
  Tm3: 82.1 °C
[5]
  ability to bind to and block anti-DSG2 antibody: able to bind to and block anti-DSG2 antibodies
[5]; [8]
  % inhibition: 61.2%
[5]; [9]
  % inhibition: 85.5%
[5]; sample: no antibody control
  % inhibition: 0.7%
[7]; sample: ARVC serum 1
  % inhibition: 9.2%
[7]; sample: ARVC serum 2
  % inhibition: 27.6%
[7]; sample: ARVC serum 3
  % inhibition: 15.5%
[7]; sample: ARVC serum 4
  % inhibition: −5.6%
[7]; sample: ARVC serum 5
  % inhibition: 20.6%
[7]
  effect of enriching for fraction C on ability to block ARVC patient serum: more pronounced

B3: DSG2FP#4: DSG2 extracellular domain (50-609 of SEQ ID NO: 1); linker EAAAK; amino acids 104-330 of IgG1 (L234A, L235A, P329G) (protein)
chain: AWITAPVALREGEDLSKKNPIAKIHSDLAEERGLKITYKYTGKGITEPPFGIFVFNKDTGELNVTSILDREETPFFLLTGYALDARGNNVEKPLELRIKVLDINDNEPVFTQDVFVGSVEELSAAHTLVMKINATDADEPNTLNSKISYRIVSLEPAYPPVFYLNKDTGEIYTTSVTLDREEHSSYTLTVEARDGNGEVTDKPVKQAQVQIRILDVNDNIPVVENKVLEGMVEENQVNVEVTRIKVFDADEIGSDNWLANFTFASGNEGGYFHIETDAQTNEGIVTLIKEVDYEEMKNLDFSVIVANKAAFHKSIRSKYKPTPIPIKVKVKNVKEGIHFKSSVISIYVSESMDRSSKGQIIGNFQAFDEDTGLPAHARYVKLEDRDNWISVDSVTSEIKLAKLPDFESRYVQNGTYTVKIVAISEDYPRKTITGTVLINVEDINDNCPTLIEPVQTICHDAEYVNVTAEDLDGHPNSGPFSFSVIDKPPGMAEKWKIARQESTSVLLQQSEKKLGRSEIQFLISDNQGFSCPEKQVLTLTVCECLHGSGCREAQHDSYVGEAAAKDKTHTCPPCPAPEAAGGPSVFLFPPKPKDTLMISRTPEVTCVVVDVSHEDPEVKFNWYVDGVEVHNAKTKPREEQYNSTYRVVSVLTVLHQDWLNGKEYKCKVSNKALGAPIEKTISKAKGQPREPQVYTLPPSRDELTKNQVSLTCLVKGFYPSDIAVEWESNGQPENNYKTTPPVLDSDGSFFLYSKLTVDKSRWQQGNVFSCSVMHEALHNHYTQKSLSLSPGK
[3]
  Peak 1 mass %: ~96%
  Peak 1 mode diameter: 44.87 nm
  PDI: 0.32
[4]
  Tm1: 50.7 °C
  Tm2: 63.1 °C
  Tm3: 81.5 °C
[5]
  ability to bind to and block anti-DSG2 antibody: able to bind to and block anti-DSG2 antibodies
[5]; [8]
  % inhibition: 61.2%
[5]; [9]
  % inhibition: 85.5%
[5]; sample: no antibody control
  % inhibition: 0.7%
[7]; sample: ARVC serum 1
  % inhibition: 6.0%
[7]; sample: ARVC serum 2
  % inhibition: 9.2%
[7]; sample: ARVC serum 3
  % inhibition: −8.0%
[7]; sample: ARVC serum 4
  % inhibition: 0.8%
[7]; sample: ARVC serum 5
  % inhibition: 2.0%
